From US20160237160A1 (Bayer, published 2016) come the findings set out here.

Test [1] addresses T1, TWEAKR (TNFRSF12A, FN14), human, on tumor cell lines (human, UniProt Q9NP84 28-129). Kind of test: cell-based or functional assay.
The target in test [2] is T1, TWEAKR (TNFRSF12A, FN14), human, on …. Kind of test: cell-based or functional assay. This is another data set of the same source.
Test [3] has the same target. Put plainly: cell-based or functional assay. The source holds these as a separate data set.
For test [4] the target is unchanged. Kind of test: FACS, A375 cells, 10 ug/ml. In general terms: In flow cytometry, cells or beads pass a laser one at a time.
Procedure: (§1) To determine the binding characteristics of the anti-TWEAKR antibodies on mouse and human cancer cell lines, binding was tested by flow cytometry to a panel of cell lines. […] Cells were suspended at approximately 10⁵ cells/well in FACS buffer (PBS without Ca/Mg, containing 3% FCS, Biochrom). Cells were centrifuged (250 g, 5 min, 4° C.) and supernatant discarded. Cells were resuspended in dilutions of the antibodies of interest (10 μg/ml in 80 μl if not indicated otherwise) in FACS buffer, and incubated on ice for 1 h. […] After incubation for 1 h on ice cells were again washed with cold FACS buffer, resuspended in 1000 FACS buffer and analyzed by flow cytometry using a FACS-Array (BD Biosciences). Results are calculated as Geo Mean of fluorescence detected by the antibody of interest subtracted by background fluorescence as measured by detection with the secondary antibody alone. Values are scored according to the following system: Geo Mean−Geo Mean of secondary antibody alone >10: +, >100: ++, >1000: +++, 10000: ++++, close to category border in ( ).
Test [5] shares this target. Put plainly: FACS, HT29 cells, 10 ug/ml.
Procedure: as §1
For test [6] the target is unchanged. Kind of test: FACS, WiDr cells, 10 ug/ml.
Procedure: as §1
Test [7] shares this target. Kind of test: FACS, 786-O cells, 10 ug/ml.
Procedure: as §1
The target is the same in test [8]. Put plainly: FACS, SKOV-3 cells, 10 ug/ml.
Test [9] shares this target. Put plainly: FACS, NCI-H322 cells, 10 ug/ml.
Test [10] deals with T2, TPP-2305 (hTNFRSF12Aaa28-80) (Human, UniProt Q9NP84 28-80).
T2 construct: monomeric extracellular domain, bought; also called purified recombinant human TWEAKR protein; soluble monomeric TWEAKR
Put plainly: SPR (Biacore T100), IgG captured, TPP-2305 injected, 1:1 model. For orientation: SPR reads the build-up and loss of mass on a sensor chip optically.
Procedure: Binding affinities of anti-TWEAKR antibodies were determined by surface plasmon resonance analysis on a Biacore T100 instrument (GE Healthcare Biacore, Inc.). Antibodies were immobilized onto a CM5 sensor chip through an indirect capturing reagent, anti-human IgG(Fc). […] Anti-TWEAKR antibodies were injected at a concentration of 10 μg/ml at 10 μl/min for 10 sec.
Sensorgrams were generated after in-line reference cell correction followed by buffer sample subtraction. The dissociation equilibrium constant (KD) was calculated based on the ratio of association (kₒₙ) and dissociation rated (koff) constants, obtained by fitting sensorgrams with a first order 1:1 binding model.

Test [11] deals with T3, TPP-2614 (TweakR-ECD-34-68-hIgGFc-His-D47A) (human).
T3 construct: also called D47A TWEAKR mutein
Put plainly: ELISA, IgG coated 1 ug/ml, TWEAKR variant 250 ng/ml, anti-HIS HRP (FIG. 6C).
Procedure: Antibodies were coated (1 μg/ml), TWEAKR variant was added at 250 ng/ml, detection via anti-HIS HRP. […] Antibodies were coated (1 μg/ml), TWEAKR variant was added 250 ng/ml, detection via anti-HIS HRP.

Test [12] addresses T4, TPP-599 (HUMAN-TNFRSF12Aaa28-80-hIgG1-Fc) (human).
T4 construct: dimeric; also called human TWEAKR Fc; TWEAKR-Fc
Put plainly: SPR, TWEAKR-Fc immobilized, IgG injected, bivalent analyte model (avidity mode).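 Note: kd derived as the ratio of fitted dissociation to association rate constants, with sensorgrams corrected against a reference flow cell and a buffer blank before fitting.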
Procedure: (§2) Sensorgrams were generated after in-line reference cell correction followed by buffer sample subtraction. The dissociation equilibrium constant (KD) was calculated based on the ratio of association (kₒₙ₁) and dissociation rated (koff1) constants, obtained by fitting sensorgrams with a bivalent analyte model using Biavaluation Software (version 4.0).

Test [13] deals with T5, TPP-601 (MURINE-TNFRSF12Aaa28-80-hIgG1-Fc) (murine).
T5 construct: dimeric; also called murine TWEAKR Fc
The test is described as above.
Procedure: as §2

Test [14] has as its target T6, TPP-1846 (MAC-TNFRSF12Aaa28-80-hIgG1-Fc) (macaca fascicularis).
T6 construct: bivalent antigen; also called mac fasc TWEAKR Fc
Described as above.
Procedure: as §2

In test [15] the target is T7, TPP-1779 (RAT-TNFRSF12Aaa28-80-hIgG1-Fc) (rat).
T7 construct: bivalent antigen; also called rat TWEAKR Fc
The test is described as above.
Procedure: as §2

In test [16] the target is T8, TPP-1778 (PIG-TNFRSF12Aaa28-80-hIgG1-Fc) (pig).
T8 construct: bivalent antigen; also called pig TWEAKR Fc
Described as above.
Procedure: as §2

Test [17] deals with T9, TPP-1777 (DOG-TNFRSF12Aaa28-80-hIgG1-Fc) (dog).
T9 construct: bivalent antigen; also called dog TWEAKR Fc
Described as above.
Procedure: as §2

The target in test [18] is TPP-1986 (hTNFRSF12Aaa28-80-T33Q-hIgG1-Fc) (human). Put plainly: ELISA, TWEAKR-Fc coated 62 ng/ml, biotin-IgG titrated; + means IC50 1 to 150 pM.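 Note: biotinylated IgG binding to immobilized TWEAKR-Fc muteins, detected with Streptavidin-HRP and Amplex Red, IC50 derived from fitted dose-response curves of twofold serial dilutions.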 Background: An ELISA detects its analyte on a solid surface through an enzyme-linked reagent.
Procedure: (§3) To collect dose-response data, the different TWEAKR-Fc muteins were coated with a low concentration (62 ng/ml) in a 384-well Maxisorb ELISA plate and a serial 2fold dilution of biotinylated IgG starting with a concentration of 100 nM was used as soluble binding partner. Detection was done with Streptavidin-HRP and Amplex Red.
(§4) The dose-response data were fitted and IC50s determined.
The target in test [19] is TPP-1987 (hTNFRSF12Aaa28-80-S40R-hIgG1-Fc) (human). Described as above.
Procedure: as §3, §4
Test [20] concerns the target TPP-1988 (hTNFRSF12Aaa28-80-M50A-hIgG1-Fc) (human). Described as above.
Procedure: as §3, §4
The target of test [21] is TPP-2683 (hTNFRSF12Aaa28-80-R56P-hIgG1-Fc) (human). The test is described as above.
Procedure: as §3, §4
Test [22] deals with TPP-1989 (hTNFRSF12Aaa28-80-H60K-hIgG1-Fc) (human). The test is described as above.
Procedure: as §3, §4
Test [23] concerns the target TPP-1990 (hTNFRSF12Aaa28-80-L65Q-hIgG1-Fc) (human). The test is described as above.
Procedure: as §3, §4
Test [24] addresses T10, TPP-2202 (TWEAKR-ECD-28-80-hIgGFc-His) (human).
T10 construct: dimeric; also called TWEAKR-Fc fusion protein; full ectodomain 28-80
Put plainly: ELISA, TPP-2202 coated at 1 µg/ml, biotinylated IgG at 0.08 µg/ml (open bar) and 0.3 µg/ml (filled bar), Streptavidin-HRP, Amplex Red.
Procedure: (§5) Detection was done with Streptavidin-HRP and Amplex-Red substrate.
(§6) To analyze for binding, 1 μg/ml of the respective dimeric TWEAKR-Fc construct were coated and, 0.3 μg/ml and 0.08 μg/ml of biotinylated IgG were used as soluble binding partner. Detection was done with Streptavidin-HRP and Amplex-Red substrate.

The target in test [25] is T11, TPP-2203 (TWEAKR-ECD-34-68-hIgGFc-His) (human).
T11 construct: dimeric; also called TWEAKR(34-68)-Fc fusion protein; truncated ectodomain 34-68
Kind of test: ELISA, TPP-2203 coated at 1 µg/ml, biotinylated IgG at 0.08 µg/ml (open bar) and 0.3 µg/ml (filled bar), Streptavidin-HRP, Amplex Red.
Procedure: as §5, §6

Test [26] deals with T12, TPP-1984 (hTNFRSF12Aaa28-68-CT-His) (human).
T12 construct: monomeric ectodomain with HIS6 tag; also called TWEAKR(28-68)-HIS; C-terminally truncated TWEAKR ectodomain
T12 chain: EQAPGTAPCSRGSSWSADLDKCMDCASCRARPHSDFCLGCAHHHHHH
Kind of test: ELISA, TPP-1984 coated at 1 µg/ml, biotinylated IgG at 0.08 µg/ml (open bar) and 0.3 µg/ml (filled bar), Streptavidin-HRP, Amplex Red.
Procedure: as §5, §6

The target in test [27] is T4, TPP-599 …. Put plainly: ELISA, 2.5 nM biotinylated TWEAKR-Fc coated, soluble Fab, anti-c-Myc detection.
Test [28] deals with T3, TPP-2614 …. Kind of test: ELISA, PDL-192(TPP-1104) coated at 1 µg/ml, eight-fold diluted HEK293 supernatant with the TWEAKR(34-68)-Fc mutein, anti-HIS-HRP, Amplex Red.
Procedure: S37A, R38A, S40A, W42A, S43A, D45A, D47A, K48A, D51A, S54A, R56A, R58A, P59A, H60A, S61A, D62A, F63A and L65A muteins were expressed in HEK293 cells (black diamonds).
These TWEAKR(34-68)-Fc muteins were expressed in HEK293 cells. To collect dose-response data, IgGs were coated at a concentration of 1 μg/ml in a 384-well Maxisorp ELISA plate and a serial 2fold dilution of the TWEAKR mutein containing supernatant was used as soluble binding partner. Detection was done with anti-HIS-HRP and Amplex Red.

B1: TPP-2084 (antibody, human IgG1, kappa, V domains shown)
VH: EVQLLESGGGLVQPGGSLRLSCAASGFTFSPYPMMWVRQAPGKGLEWVSYISPSGGSTHYADSVKGRFTISRDNSKNTLYLQMNSLRAEDTAVYYCARGGDTYFDYFDYWGQGTLVTVSS
VL: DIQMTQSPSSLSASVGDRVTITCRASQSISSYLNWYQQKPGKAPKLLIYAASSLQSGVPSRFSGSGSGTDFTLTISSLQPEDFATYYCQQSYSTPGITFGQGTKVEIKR
notes: Human IgG1
In general, koff refers to a measure of how fast the partners let go of each other. High values mean fast dissociation, low ones slow dissociation. As a reminder, the kon is the second-order rate constant of association. In the case of B1, the “IL-8 release from A375 cells at 100 ug/ml, % of the activation by 300 ng/ml TWEAK ligand” value in test [1] was determined as 113%. For the same molecule, in test [2], the “Fold induction of Caspase 3/7, 786-O cells, 100 ug/ml” value came out at 1.61 fold. In addition, the “Fold induction of Caspase 3/7, A253 cells, 100 ug/ml” value in test [2] is 1.6 fold. In test [2], the “Fold induction of Caspase 3/7, HT-29 cells, 100 ug/ml” value is 2.59 fold. For the same molecule, in test [2], the “Fold induction of Caspase 3/7, NCI-H322 cells, 100 ug/ml” value was found to be 1.58 fold. Moreover, the “% Inhibition of proliferation, 786-O cells, 96h, 100 ug/ml” value in test [3] worked out at 68%. Also, the “% Inhibition of proliferation, A253 cells, 72h, 100 ug/ml” value in test [3] is over 100%. Also, the “% Inhibition of proliferation, HT-29 cells, 24h, 100 ug/ml” value in test [3] came out at 98%. For the same molecule, the “% Inhibition of proliferation, WiDr cells, 96h, 100 ug/ml” value in test [3] worked out at 52%. Besides, the “GeoMean of Fluorescence minus GeoMean with the secondary antibody only” value was determined as 199 in test [4]; 750 in test [5]; 1350 in test [6]; 16300 in test [7]; 1660 in test [8]; 126 in [9]. For the same molecule, the Kd came out at 27.6 nM in test [10]; 16.2 nM in [12]; 4 nM in test [13]; 23.8 nM in test [14]; 21.1 nM in test [15]; 34.2 nM in test [16]. Besides, in [17], the Kd stood at 17 nM. This molecule also displayed an off-rate constant (koff) in [10] of 0.11 s⁻¹. Moreover, the kon in test [10] stood at 4.2e+06 M⁻¹ s⁻¹. The “% binding normalized by wt binding signal” value in test [11] is under 5%. For the same molecule, the binding result in [18], in test [19], in test [20], in [21], in test [22] and in test [23] was “binds” in each case. Besides, the binding result in [24], in test [25] and in test [26] was “binds” each time.

B2: TPP-883 Fab variant G97F of CDR-L3 (Fab, V domains shown)
VH: EVQLLESGGGLVQPGGSLRLSCAASGFTFSPYPMMWVRQAPGKGLEWVSYISPSGGKTHYADSVKGRFTISRDNSKNTLYLQMNSLRAEDTAVYYCARGGDGYFDYFDYWGQGTLVTVSS
VL: DIQMTQSPATLSASVGDRVTITCRASQSISSYLNWYQQKPGKAPKLLIYAASSLQSGVPSRFSGSGSGTDFTLTISSLQPEDFATYYCQQSYSSPFITFGPGTKVEIK
As for B2, the binding result in test [27] is listed as “binds”.

B3: TPP-883 Fab variant A51Q of CDR-L2 (Fab, V domains shown)
VH: EVQLLESGGGLVQPGGSLRLSCAASGFTFSPYPMMWVRQAPGKGLEWVSYISPSGGKTHYADSVKGRFTISRDNSKNTLYLQMNSLRAEDTAVYYCARGGDGYFDYFDYWGQGTLVTVSS
VL: DIQMTQSPATLSASVGDRVTITCRASQSISSYLNWYQQKPGKAPKLLIYQASSLQSGVPSRFSGSGSGTDFTLTISSLQPEDFATYYCQQSYSSPGITFGPGTKVEIK
In the case of B3, the binding result in [27] is given as “binds”.

B4: TPP-883 Fab variant S94T of CDR-L3 (Fab, V domains shown)
VH: EVQLLESGGGLVQPGGSLRLSCAASGFTFSPYPMMWVRQAPGKGLEWVSYISPSGGKTHYADSVKGRFTISRDNSKNTLYLQMNSLRAEDTAVYYCARGGDGYFDYFDYWGQGTLVTVSS
VL: DIQMTQSPATLSASVGDRVTITCRASQSISSYLNWYQQKPGKAPKLLIYAASSLQSGVPSRFSGSGSGTDFTLTISSLQPEDFATYYCQQSYTSPGITFGPGTKVEIK
For the molecule B4, the binding result in test [27] is “binds”.

B5: PDL-192(TPP-1104) (antibody, human IgG1, kappa, V domains shown)
VH: QVELVESGGGLVQPGGSLRLSCAASGFTFSSYWMSWVRQAPGKGLEWVAEIRLKSDNYATHYAESVKGRFTISRDDSKNSLYLQMNSLRAEDTAVYYCTGYYADAMDYWGQGTLVTVSS
VL: DIQMTQSPSSLSASVGDRVTITCRASQSVSTSSYSYMHWYQQKPGKAPKLLIKYASNLESGVPSRFSGSGSGTDFTLTISSLQPEDFATYYCQHSWEIPYTFGGGTKVEIKR
notes: Human IgG1; variable domains from WO2009/020933 with constant region added
B5: the binding result in [20] and in test [28] was “binds” each time.
